Measurements taken from the Human Domainome abundance scans (Beltran et al. 2025).

B1: Unconventional myosin-Ie, residues 1051 to 1108; numbered along this chain, Q12965 (parent)
chain: PQVPQCKALYAYDAQDTDELSFNANDIIDIIKEDPSGWWTGRLRGKQGLFPNNYVTKI

Variants of: B1
Assay: abundance fitness (aPCA) (normalised: wild type 0, dead -1); higher = more abundant; growth selection in yeast, the domain comes from the species named
Settings: Homo sapiens

Abundance fitness: each site, then its substitutions
V3: I -0.145
F22: R -0.953 | G -0.954 | P -0.834 | H -0.727 | K -0.754 | I -0.409 | N -0.816 | V -0.472 | S -0.766 | E -0.858 | M -0.441 | C -0.895 | T -0.793 | D -0.748 | Y -0.714 | W -0.996
A8: E -0.674 | F -0.619 | N -0.853 | C -0.196 | P -0.732 | I -1 | V -0.714 | T -0.544 | K -0.902 | G -0.748 | W -1.03 | M -0.817 | S -0.714 | R -0.887
L20: T -1.04 | W -1.01 | E -0.807 | G -1.03 | S -0.879 | P -1.11 | D -0.893 | C -0.708 | M -0.214 | H -0.977 | I -0.05 | N -0.764 | Q -1.12 | K -0.836 | V -0.879
D13: V -0.161 | Q -0.018 | F -0.293 | R -0.165 | W -0.368 | Y -0.209 | G -0.304 | I -0.082 | N -0.084 | S -0.189 | P -0.399 | C -0.134 | T 0.012 | E -0.067 | H -0.16 | M -0.16 | A -0.156
D18: L -0.063 | E 0.052 | Y -0.078 | T -0.1 | N -0.055 | G -0.056 | I -0.197 | R -0.065 | P 0.089 | S 0.009 | W -0.2 | H -0.279 | Q -0.152 | M -0.091 | C -0.05 | A -0.162 | V -0.257 | F -0.238
E19: A -0.288 | K -0.136 | F -0.095 | C -0.123 | W -0.359 | Q -0.125 | R -0.189 | V -0.382 | M -0.055 | D -0.54 | P -0.925 | Y 0.191 | N -0.277 | L -0.435 | S -0.159 | T -0.132 | I -0.548 | G -0.018
A24: F -0.106 | D -0.477 | I -0.04 | K -0.04 | C -0.213 | H -0.06 | E -0.052
K7: S -0.167 | M -0.092 | D -1.02 | Y -0.074 | A -0.137 | Q -0.287 | W -0.26 | V -0.057 | H -0.122 | P -0.945 | N -0.647 | T -0.049 | G -0.943 | L -0.106 | F -0.267 | E -0.264 | C -0.028 | R -0.114 | I 0.004
Y12: Q -0.887 | M -0.761 | H -0.274 | T -0.836 | W -0.15 | E -0.396 | F -0.377 | K -0.54 | A -0.803 | L -0.892 | R -0.107 | S -0.909 | V -0.891 | G -0.937 | C -0.968 | I -0.966
Q2: W -0.12 | S -0.223 | T -0.155 | R -0.317 | V -0.173 | P -0.062 | Y -0.373
N23: S 0.004 | Q -0.002 | F -0.076 | I -0.081 | W -0.38 | E 0.005 | H -0.048 | Y -0.155 | P -0.788 | D -0.047 | K -0.008 | G -0.048 | C -0.062 | T -0.01 | A -0.01 | L -0.065 | M -0.026
Q15: C -0.239 | H -0.28
